Measured values from patent US20170327561A1, “Anti-Angiogenic Properties of Collagen V Derived Fragments” (Ecole Normale Superieure de Lyon, priority 2014, published 2017).
Entries after “also recorded” stand apart in the source; their conditions may differ.

B1: HEPV: 12 kDa recombinant fragment of the collagen V pro-α1 chain, residues Ile824 to Pro950, SEQ ID NO. 1, binds heparin (protein, listed as Homo sapiens)
chain: IKGDRGEIGPPGPRGEDGPEGPKGRGGPNGDPGPLGPPGEKGKLGVPGLPGYPGRQGPKGSIGFPGFPGANGEKGGRGTPGKPGPRGQRGPTGPRGERGPRGITGKPGPKGNSGGDGPAGPPGERGP
modifications: HEPV
B2: ΔHBS-HEPV: non-functional HEPV mutant, SEQ ID NO. 4, Lys905, Arg909 and Arg912 replaced with alanines; negative control (protein)
chain: IKGDRGEIGPPGPRGEDGPEGPKGRGGPNGDPGPLGPPGEKGKLGVPGLPGYPGRQGPKGSIGFPGFPGANGEKGGRGTPGAPGPAGQAGPTGPRGERGPRGITGKPGPKGNSGGDGPAGPPGERGP
modifications: Synthetic Mutant of HEPV
notes: 4, Lys905, Arg909 and Arg912 replaced with alanines; negative control

Experiments:
[1] = test system: murine TS/Apc breast cancer cells implanted subcutaneously; experiment: Antitumor activity, tumor growth by caliper; type: in vivo, nude mice; settings: 50 μg peptide every 2 days, versus HEPV-ΔHBS control; from day 20 of treatment
Protocol: (A) Murine Tsa/Pc breast cancer cells implanted subcutaneously are treated from day 5 repeatedly by peritumoral injections of 50 μl PBS containing 50 μg control (HEPV-ΔHBS) of HEPV peptides every 2 days. […] Tumors sections were immunostained using an anti-CD31 antibody that detects blood vessels (B) or an anti-Ki67 antibody that stains proliferating cells (C).
TS/Apc-pGL3 is a cell line derived from the original adenocarcinoma TS/Apc mouse cell line stably transfected with the pGL3-luciferase reporter gene (Promega, Charbonnieres, France). Cells were cultured at 37° C. in a humidified 5% CO2 incubator in RPMI 1640 supplemented with 1% glutamine, 10% fetal bovine serum, 50 units/ml penicillin, 50 μg/ml streptomycin, β-mercaptoethanol (25 μM) and 700 μg/ml Geneticin® (G418 sulphate; Gibco, Paisley, UK).
Twenty female athymic Swiss nude mice, purchased from Janvier (Le Genest Saint Isle, France) at 6-8 weeks of age were used and maintained under specific pathogen-free conditions. Mice received a subcutaneous (s.c.) injection of 10^6 TS/Apc-pGL3 cells suspended in 200 μl of PBS into the right flank usually results in formation of 6-8 mm-diameter tumors after one week. […] Tumor growth was evaluated using calipers.
Tumors have been induced by implantation of murine breast cancer cells (TSA) in nude mice. […] The volume of the tumors is measured with a caliper.

[2] = Organ distribution of the peptide after injection into the blood system; type: in vivo; settings: mouse
[3] = test system: FGF-2 induced angiogenesis; experiment: Hemoglobin measurement in implanted FGF-2 sponges; type: in vivo, nude mice; settings: 20 μg peptide first day then every two days, after 7 days of treatment
Description: (B) Formation of new blood vessels in nude mice implanted with a sponge impregnated with FGF-2 or PBS. After repeated treatments with peptides HEPV or HEPV-ΔHBS, the sponges are extracted and the presence of hemoglobin quantified. The presence of hemoglobin reflects the blood vessels content, as documented by the photos.
Disc Cellspon cellulose sponges (thickness 2 mm, diameter 10 mm; Cellomeda, Turku, Finland) were implanted under the skin of the mice. Prior to implantation, the sponges were hydrated with 50 μl of either PBS (negative control) or FGF-2 (200 ng/50 μl; positive angiogenic control) (recombinant FGF-2, Eurobio-AbCys, Les Ulis, France). […]
After implantation of the PBS or FGF-2 treated sponges and treatment with 50 μl containing 50 μg HEP peptides at DO, 2, 3 and 5, the hemoglobin content was measured at D8. […] Each sponge was homogenized in 1 ml of RIPA lysis buffer containing a cocktail of protease inhibitors, centrifuged at 200 g, and the supernatants were quantified. The extent of vascularization of the sponge implants was assessed by measuring the concentration of hemoglobin with Drabkin's reagent (Sigma-Aldrich, Saint-Quentin Fallavier, France). […]
20 μg of HEPV or ΔHBS-HEPV have been injected simultaneously with PBS or FGF-2, at the first day and then every two days. After 7 days of treatment, sponges are taken out and analyzed. […]

[4] = test system: FGF-2-induced ERK1/2 and Akt phosphorylation in HUVEC; experiment: Phosphorylation assay (Western blot) after FGF-2 stimulation; type: cell-based; settings: peptide 8 μg/mL 24 h, FGF-2 50 ng/mL
Protocol: (§1) HUVEC were seeded at 2.10^5 cells/wells in ECGM2 in 6-well plates. The cells were treated with HEPV or ΔHBS-HEPV (8 μg/mL) during 24 h in serum free medium and then stimulated with FGF-2 or VEGF (50 ng/mL) for 5 or 20 minutes at 37° C. Cells were then washed twice with cold PBS and scraped and lysed at 4° C. in lysis buffer 1% NP-40 (150 mM NaCl, 50 mM Hepes pH 7.4, 5 mM EDTA, 10% glycerol, 1% NP-40, complete protease inhibitor cocktail (Roche), 1 mM Na3VO4). After centrifugation (13 000 g, 15 min, 4° C.), soluble proteins were collected. Protein amount was determined by BCA protein assay (Pierce) and equal amounts of proteins (10 μg) were loaded on SDS-PAGE and transfer on PVDF membrane at 100 V during 1 h. The blots were blocked with 5% BSA in TBS-T buffer (20 αmM Tris-HCl pH 7.4 and 0.05% Tween 20) and incubated with primary antibodies in TBST containing 5% bovine serum albumin, overnight at 4° C. Immunoreactivity was detected by sequential incubation with horseradish peroxidase-conjugated secondary antibodies purchased and ECL detection reagents purchased from Biorad. The antibodies used for phospho-protein detection were the followings: anti-AKT, anti-phospho-Akt (Ser473), anti-ERK1/2 and anti-phospho-ERK1/2 (Thr202/Tyr204, Thr185/Tyr187) (all from Cell Signaling Technology).
(§2) The aim of the experiments presented in FIG. 4 was to determine if, after incubation of endothelial cells with the peptide HEPV, the response to FGF-2 was affected by the presence of this peptide. The measured response to FGF-2 is the level of phosphorylation of proteins ERK 1/2 and Akt, involved in the signalization pathway of FGF-2 and VEGF, as determined with specific antibodies.
Endothelial cells HUVEC have been treated during 24 hours with HEPV or the control peptide ΔHBS-HEPV, and have then been stimulated with FGF-2 (FIG. 4A) or VEGF (50 ng/ml) (FIG. 4B).

[5] = test system: VEGF-induced ERK1/2 phosphorylation in HUVEC; experiment: Phosphorylation assay (Western blot) after VEGF stimulation; type: cell-based; settings: peptide 8 μg/mL 24 h, VEGF 50 ng/ml
Protocol: as §1, with “The blots were blocked with 5% BSA in TBS-T buffer (20 αmM Tris-HCl pH 7.4 and 0.05% Tween 20) and incubated with primary antibodies in TBST containing 5% bovine serum albumin, overnight at 4° C.” left out, “The antibodies used for phospho-protein detection were the followings: anti-AKT, anti-phospho-Akt (Ser473), anti-ERK1/2 and anti-phospho-ERK1/2 (Thr202/Tyr204, Thr185/Tyr187) (all from Cell Signaling Technology).” left out
as §2, with “antibodies. […]” for “antibodies.”

[6] = test system: murine TS/Apc breast cancer tumors; experiment: Immunohistology of tumor sections (anti-CD31, anti-Ki67); type: in vivo, nude mice
Protocol: At day 20, 3 mice/group were sacrificed for immunohistology studies. At day 35 days after implantation all remaining tumors were extracted.
Frozen sections (8 μm) from tumors were fixed in acetone for 10 min. Sections were then washed 3×5 min in Tris-buffered saline containing 0.1% Tween 20, and endogenous peroxidases were blocked with 0.1% H2O2 in methanol for 20 min. Sections were then sequentially incubated for 1 h with a rat monoclonal anti-CD31 antibody (MEC13.3;1:500; Pharmingen) or rabbit anti-Ki67 (1:100; AbCAM) and for 1 h with goat anti-rat antibody for CD31 (1:500; Cell-signaling) or goat anti-rabbit for Ki67 (1:200; Dako). […] Sections were counterstained with hematoxylin and all were mounted.
Staining against the endothelial marker CD31 by means of immunohistochemistry was followed by observation under low magnification scope (100×), five field of view of each tumor (5 tumors by condition). Then, vessels quantity were measured in each of these areas utilizing ImageJ software (http://rsbweb.nih.gov/ij). All counts were performed in a blinded manner.
After immunohistochemical staining against Ki67, slides were observed under high magnification scope (200×). Six to nine areas by tumor were photographed. These photographs were analyzed by the plugging ImmunoRatio in ImageJ software (http://rsbweb.nih.gov/ij). The Ki67 index was evaluated in a blinded manner and calculated as Ki67-positive cells divided by all tumor cells in one field.
Mice from each group are sacrificed at day 20 and day 33 to check the formation of novel blood vessels. The account of the blood vessels is realized by observations of the tumors samples.
The proliferation of tumor cells with an antibody anti-Ki67 is also realized on these tumor samples.

[7] = test system: human dermal microvascular endothelial cells (HDMEC); experiment: Quantitative real-time RT-PCR of collagen genes in HEPV-treated endothelial cells; type: cell-based; settings: HDMEC treated with HEPV for 4, 12 and 24 hours; relative to untreated controls, normalized to L30
Protocol: Expression of COL14A1 and COL18A1 mRNA in human dermal microvascular endothelial cells (HDMEC) treated with HEPV for 4, 12 and 24 hours, analyzed by real-time PCR. Values are normalized to the house keeping gene L30. Quantification is expressed relative to controls (cells cultivated in the same conditions without HEPV). Values are mean±SEM (n=3).
Total RNA was isolated from 8×10^6 cells by phenol-chloroform-isopropanol extraction (Trizol Reagent, Invitrogen). A reverse transcriptase reaction was performed on 1 μg of RNA using M-MLV reverse transcriptase (Promega). Quantitative PCRs were performed using SYBR Green Supermix (Biorad) and specific primers using a I-Cycler Optical System (Biorad). The following primers were used: […]
L30 was selected as housekeeping gene and used for normalization. Relative transcript abundances were determined as well known by the person skilled in the art. Relative gene expression was determined using the 2^−ΔΔC^T method. Student's t-tests were used to determine statistical significance (n=4).
A transcriptomic analysis has been performed, in order to identify the HEPV-regulated genes. Endothelial HDMEC cells have been treated with HEPV or not, for 4, 12 and 24 hours.

[8] = Heparin-Sepharose affinity chromatography (NaCl gradient elution); type: binding; settings: linear NaCl gradient 0-500 mM, Tris-HCl pH 7.4
Protocol: Heparin-Sepharose affinity columns (HiTrap Heparin, Amersham) were equilibrated in 50 mM Tris-HCl (pH 7.4). Protein samples were loaded onto a column, and a programmed linear gradient of 0-500 mM NaCl, 1M Tris-HCl (pH 7.4) was applied at a flow rate of 0.5 ml/min, confirmed by continuous conductivity measurement. Fractions (1 ml) were collected, and the elution profile of protein samples was determined by monitoring the absorbance at 214 nm. To accurately compare elution positions of the mutant, its elution with NaCl gradient was achieved versus a standard HEPV elution.
The affinity of both peptides for heparin is compared, on a heparin-sepharose column, determined with the necessary quantity of NaCl to elute the peptides.

Molecule	Tumor growth (tumor volume) [1]	Toxicity (concluded from absence of liver accumulation) [2]	Accumulation in various organs ([2]; results not shown)	Accumulation into the liver ([2]; results not shown)	Decrease of hemoglobin level in sponges, in comparison with mice treated with ΔHBS-HEPV [3] [times]	Phosphorylation of Akt after stimulation with FGF-2 [4]	Phosphorylation of ERK1/2 after stimulation with FGF-2 [4]	Phosphorylation of ERK1/2 after stimulation with VEGF [5]	Blood vessels density in tumors (anti-CD31), compared to ΔHBS-HEPV-treated mice ([6]; day 20)	Tumor cells proliferation (anti-Ki67) ([6]; day 20)	Blood vessels density in tumors (anti-CD31), compared to ΔHBS-HEPV-treated mice ([6]; day 33)	Tumor cells proliferation (anti-Ki67) ([6]; day 33)	Expression of COL4A1 mRNA [7]	Expression of COL18A1 mRNA [7]	NaCl concentration needed to elute the peptide from heparin-sepharose [8] [M]
B1	slows down; also recorded: significantly (p<0.05) slowed down	non-toxic	does not accumulate non-specifically in various organs, except in kidney and bladder	does not accumulate into the liver	2.5	inhibits	inhibited	present a phosphorylation of ERK1/2	significant decrease	significant decrease	less significant	the proliferation strikes back	up-regulated	up-regulated	0.35
B2							inefficient								0.2
